Measured values: patent publication US7838288B2, “Modulators of odorant receptors” (Duke University, priority 2004, dated 2010)

T1: mouse odorant receptor OREG (Mus musculus, UniProt Q920P2)
T1 construct: expressed in transfected cells; host or cells: 293T cells (with or without co-transfected REEP1/RTP1/RTP2) and Hana3A cells (293T stably expressing mouse REEP1, RTP1, RTP2, Galpha-olf)
T1 sequence (Q920P2 1-313): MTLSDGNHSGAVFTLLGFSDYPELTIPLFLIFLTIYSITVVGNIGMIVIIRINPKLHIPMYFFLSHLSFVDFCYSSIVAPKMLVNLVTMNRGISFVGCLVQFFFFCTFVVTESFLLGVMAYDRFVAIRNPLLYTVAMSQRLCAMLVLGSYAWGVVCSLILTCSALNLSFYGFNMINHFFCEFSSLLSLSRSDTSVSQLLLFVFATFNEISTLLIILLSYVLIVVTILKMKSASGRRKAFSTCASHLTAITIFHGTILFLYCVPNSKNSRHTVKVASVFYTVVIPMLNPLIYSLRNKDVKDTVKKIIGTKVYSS

B1: REEP1: Receptor Expression Enhancing Protein 1; murine SEQ ID NO: 21, human SEQ ID NO: 27 (protein, listed as Mus musculus)
chain: MVSWIISRLVVLIFGTLYPAYYSYKAVKSKDIKEYVKWMMYWIIFALFTTAETFTDIFLCWFPFYYELKIAFVAWLLSPYTKGSSLLYRKFVHPTLSSKEKEIDDCLVQAKDRSYDALVHFGKRGLNVAATAAVMAASKGQGALSERLRSFSMQDLTTIRGDGAPAPSGPPPPGTGRSSGKHSQPKMSRSASESAGSSGTA
B2: RTP1: Receptor Transporting Protein 1; murine SEQ ID NO: 33, human SEQ ID NO: 37 (protein, listed as Mus musculus)
chain: MRIFRPWRLRCPALHLPSFPTFSIKCSLPPLPTDEDMCKSVTTGEWKKVFYEKMEEVKPADSWDFIIDPNLKHNVLAPGWKQYLELHASGRFHCSWCWHTWQSPHVVILFHMYLDKAQRAGSVRMRVFKQLCYECGTARLDESSMLEENIESLVDNLITSLREQCYGERGGHYRIHVASRQDNRRHRGEFCEACQEGIVHWKPSEKLLEEEATTYTFSRAPSPTKPQAETGSGCNFCSIPWCLFWATVLMLIIYLQFSFRTSV

What was measured:
[1] = molecular target: T1, mouse odorant receptor OREG; assay: CRE-luciferase reporter gene assay, OREG; assay type: cell-based; conditions: 293T cells; compared to OR alone or control pCI
Excerpt: Poor odorant evoked signaling activity in heterologous cell culture systems expressing ORs has been attributed to the poor cell surface expression of ORs. The identification of REEP and/or RTP allowed a direct assessment of this issue. A luciferase reporter gene assay was employed in which a cAMP responsive element (CRE) mediated luciferase gene expression (see FIG. 8A). Because OR activation leads to an increase in cAMP, activation of the mouse odorant receptor OREG by its ligand eugenol was measured in the presence and absence of REEP and/or RTP (see, e.g., Kajiya, K., et al. (2001) J Neurosci 21, 6018-6025; Touhara, K., et al., (1999) Proc Natl Acad Sci USA 96, 4040-4045; each herein incorporated by reference in their entireties). As reported previously, eugenol increased levels of OREG dependent luciferase activity (see, e.g., Katada, S., et al. (2003) Biochem Biophys Res Commun 305, 964-969; herein incorporated by reference in its entirety).
To facilitate analysis of odorant-OR interactions, 293T cell lines were established which stably express REEP1, RTP1, RTP2 and Gαolf, the G protein alpha subunit that couples to OR (see, e.g., Belluscio, L., et al. (1998) Neuron 20, 69-81; Jones, D. T., and Reed, R. R. (1989). Science 244, 790-795; each herein incorporated by reference in their entireties). To establish such cells, linearized expression vectors containing mouse REEP1, RTP1, RTP2 and Gαolf ORFs were transfected into 293T cells with PGK-Pac (puromycin resistant gene) (see, e.g., Watanabe, S., et al. (1995) Biochem Biophys Res Commun 213, 130-137; herein incorporated by reference in its entirety). […] Enhanced cell-surface expression was observed when OREG or other ORs were transfected in Hana3A cells and immunostained (see FIG. 10). […] Expression of Gαolf alone in 293T cells had little or no effect on OR activation using this assay.
Dual-Glo system (Promega) for luciferase assay was used. CRE-Luciferase (Stratagene) was used to measure the receptor activities. Renilla luciferase driven by constitutively active SV40 promoter (pRL-SV40: Promega) was used as an internal control. Cells were plated on poly-D-lysine coated 96 well plates (BIOCOAT, Beckton Dickinson). After 8 hours (for experiments shown in FIGS. 8B and 8C) or 12 hours (for experiments shown in FIG. 8D and FIG. 11) after transfection, the medium was replaced with CD293 chemically defined medium (Invitrogen) and the plates were incubated for one hour at 37 degrees C. The medium was replaced with 50 ul of odorant solutions dissolved in CD293 and incubated for 10 hours (for experiments shown in FIGS. 8B and 8C) or 4 hours (for experiments shown in FIG. 8D and FIG. 11) at 37 degrees C. The manufacture's protocol for measuring luciferase and Renilla luciferase activities was followed. Luminescence was measured using Wallac Victor 1420 (Perkin-Elmer). Normalized luciferase activity was calculated as [Luc (N)-Luc (0)]/RL (N), where Luc (N)=Luminescent count of a certain well, Luc (0)=Luminescent count without odorant for each OR, and RL (N)=Luminescent count of Renilla Luciferase of each well. For cAMP assays, cells were plated onto 24-well plate. […]. Prism software (Graphpad) was used for data analysis.

[2] = tested on: MOR203-1; assay: Co-immunoprecipitation with HA-tagged MOR203-1; assay type: binding, mouse; conditions: Flag-tagged protein, 293T cells, HA-MOR203-1 precipitated
Experimental: Given the ability of REEP and/or RTP to promote cell-surface expression of ORs, it was hypothesized that they may also interact with OR proteins. This was assessed using co-immunoprecipitation assays. HA-tagged MOR203-1 and Flag-tagged REEP1, RTP1 or ICAP-1, a negative control (see, e.g., Zawistowski, J. S., et al. (2002) Hum Mol Genet. 11, 389-396; herein incorporated by reference in its entirety) were transfected in 293T cells. After the cell extracts were precipitated with anti-Flag antibodies, proteins were eluted in SDS-sample buffer at room temperature whereupon western blotting analysis was performed to detect the OR proteins. OR proteins were detected as high molecular weight bands after precipitation of REEP1 or RTP1 (see FIG. 7B, lanes 1 and 2). […] The present invention is not limited to a particular mechanism. Indeed, an understanding of the mechanism is not necessary to practice the present invention.
293T cells in 100 mm dishes were transfected with ORs, REEP1, and/or RTP1 cDNAs. 16 hours after transfection, cells were lysed in lysis buffer (50 mM Tris (7.4), 150 mM NaCl, 1% NP-40, 0.5 mM PMSF, 2 mM Benzamidene, 0.5 ug/ml Leupeptin, 1.4 ug/ml pepstatin A, 2.4 ug/ml chymostatin, 15 ug/ml aprotinin, 1 mM sodium orthovanadate). The lysis were incubated with anti-Flag M2 affinity gel (Sigma) or anti-HA affinity matrix (Roche) for 2 hours at 4 degrees C. and washed with lysis buffer. Subsequently, the bound proteins were eluted by incubation with SDS sample buffer at room temperature for 2 hours. SDS-PAGE and western blotting were performed according to Mini-Protean 3 Cell (Bio-Rad) instruction manual. ECL (Amersham) was used for detecting proteins on membranes.

[3] = tested on: MOR203-1; assay: Living-cell staining of cell-surface MOR203-1; assay type: cell-based, mouse; conditions: accessory protein co-transfected in 293T cells
Excerpt: After hypothesizing that mammalian ORs require accessory protein(s) for functional cell surface expression, a search was instituted for detecting such molecule(s). Long-SAGE (serial analysis of gene expression) libraries (see, e.g., Saha, S., et al., (2002) Nat Biotechnol 20, 508-512; herein incorporated by reference in its entirety) were constructed from single olfactory neurons as well as neurons from the vomeronasal organ and genes were collected that are expressed by these neurons. To identify candidate genes expressed by the olfactory neurons Digital Differential Display (see, e.g., http://www, followed by, .ncbi.nlm.nih.gov/UniGene/info_ddd.shtml) was also used. Candidate genes were investigated for ORFs that encode membrane associated proteins. Genes were selected with similarities to known chaperones and cloned the cDNAs from olfactory epithelium cDNAs. The mRNA expression of each gene was verified by in situ hybridization. After isolating and subcloning into mammalian expression vectors, each cDNA together with a mouse OR (MOR203-1) tagged with a 20 N-terminal amino acids of rhodopsin (Rho-tag), was transfected into 293T cells. We measured whether these clones had any effect on the cell-surface expression of ORs by staining living cells using antibodies against the Rho-tag (see, e.g., Laird, D. W., and Molday, R. S. (1988) Invest Opthalmol Vis Sci 29, 419-428; herein incorporated by reference in its entirety). When MOR203-1 was transfected alone, antibody staining detected only faint cell-surface expression in less than 1% of the cells. A schematic diagram outlining the screening procedure utilized with the present invention is provided at FIG. 1.
293T cells were maintained in minimal essential medium containing 10% fetal bovine serum (M10). Lipofectamine 2000 (Invitrogen) was used for transfection. In live-cell staining, 16 hours after transfection, cells were incubated in M10 containing anti rhodopsin antibody, 4D2 (see, e.g., Laird, D. W., and Molday, R. S. (1988) Invest Opthalmol V is Sci 29, 419-428; herein incorporated by reference in its entirety) and 15 mM NaN3 at 4 degrees C. for 1 hour. After washing, cells were incubated with Cy3-conjugated anti mouse IgG (Jackson Immunologicals), washed and mounted. For FACS analysis, 4D2 and PE-conjugated anti mouse IgG (Jackson Immunologicals) were used to monitor the Rho tagged receptor expression. Anti HA rabbit antibodies (Sigma) and Alexa 488 conjugated anti rabbit IgG (Molecular Probes) was used to stain the HA-β2 adrenergic receptor. To establish the Hana3a cells, 1 ug/ml of puromycin was used for selection. 96 colonies were picked and assayed using luciferase assay using OREG.

Molecule | OREG activity by luciferase, accessory protein co-expressed [1] | co-precipitation with HA-MOR203-1 [2] | cell surface expression of MOR203-1 [3]
B1 | enhanced luciferase activities compared to OR alone | co-precipitated | enhanced both the number and staining intensity of cell surface expression
B2 | enhanced luciferase activities compared to OR alone | co-precipitated | enhanced both the number and staining intensity of cell surface expression
